Measurements as given in patent US20030171565A1 (VANDERBILT UNIVERSITY, published 2003).

Target: T1, tyrosine phosphatase SHP-1 (human, UniProt P29350 1-595)
T1 construct: mature
Assay: anti-PZR immunoprecipitation from pervanadate-treated cells, Western blot

T1 sequence (P29350 whole entry): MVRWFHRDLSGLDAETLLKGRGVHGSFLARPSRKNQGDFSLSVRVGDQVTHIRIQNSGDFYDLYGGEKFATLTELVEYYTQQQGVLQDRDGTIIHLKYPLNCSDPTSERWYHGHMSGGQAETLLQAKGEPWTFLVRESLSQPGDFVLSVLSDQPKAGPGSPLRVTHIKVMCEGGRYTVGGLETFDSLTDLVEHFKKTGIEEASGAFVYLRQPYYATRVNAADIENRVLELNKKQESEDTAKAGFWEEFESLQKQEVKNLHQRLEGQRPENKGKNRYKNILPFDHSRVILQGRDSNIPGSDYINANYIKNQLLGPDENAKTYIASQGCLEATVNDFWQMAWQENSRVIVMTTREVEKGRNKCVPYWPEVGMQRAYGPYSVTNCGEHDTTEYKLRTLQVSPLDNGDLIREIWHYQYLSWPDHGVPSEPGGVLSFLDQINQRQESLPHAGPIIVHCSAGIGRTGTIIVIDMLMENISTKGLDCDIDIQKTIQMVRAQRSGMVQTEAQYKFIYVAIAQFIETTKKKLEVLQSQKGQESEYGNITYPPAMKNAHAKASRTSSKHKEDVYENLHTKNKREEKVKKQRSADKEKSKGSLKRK

B1: protein zero related (PZR), tyrosine-phosphorylated (receptor)
chain: SALEVYTPKEIFVANGTQGKLTCKFKSTSTTGGLTSVSWSFQPEGADTTVSFFHYSQGQVYLGNYPPFKDRISWAGDLDKKDASINIENMQFIHNGTYICDVKNPPDIVVQPGHIRLYVVEKENLPVFPVWVVVGIVTAVVLGLTLLISMILAVLYRRKNSKRDYTGCSTSESLSPVKQAPRKSPSDTEGLVKSLPSGSHQGPVIYAQLDHSGGHHSDKINKSESVVYADIRKN
modifications: phosphotyrosine at 241 and 263 (cells treated with pervanadate, or cells expressing catalytically inactive SHP-2); N-glycosylated
notes: It was assayed in Triton X-100 cell extracts or as protein purified from 293 cells; also called hPZR; p43
Does B1 bind?
Result: no binding
